Measured values: patent US10689423B2, “CTLA4-binding protein peptide-linker masks” (City of Hope, priority 2015, dated 2020)

B1: Unmasked mLcn2-Fc: masked mLcn2-Fc treated with MMP9, mask released (protein)
chain: QDSTSDLIPAPPLSKVPLQQNFQDNQFHGKWYVVGLAGNRILRDDQHPMNMYATIYELKEDKSYNVTSVISSHKKCEYTIATFVPGSQPGEFTLGNIKSYGDKTSYLVRVVSTDYNQYAVVFFKLAEDNAEFFAITIYGRTKELASELKENFIRFSKSLGLPENHIVFPVPIDQCIDG
modifications: left off: small tags and cut ends; a dimerising Fc or GST
notes: masked mLcn2-Fc treated with MMP9, mask released
B2: mLcn2-Fc: mLcn2 fused to IgG1 Fc without a mask fused to the N-terminus (positive control) (protein)
chain: B1 chain
modifications: left off: a dimerising Fc or GST
B3: mLCN2: modified lipocalin2 used as a CTLA-4 antagonist, SEQ ID NO:34 (protein, listed as Homo sapiens)
chain: B1 chain

Columns and labels:
[1] = test system: CTLA-4; test: Size-exclusion chromatography analysis of CTLA-4 binding to mLcn2-Fc constructs
[2] = test system: human CTLA4-Fc on Tni insect cells; test: Flow cytometry of Tni insect cells transiently expressing human CTLA4-Fc; format: cell-based; settings: Alexa Fluor-647 conjugated variants
Description: FIG. 10C: Flow cytometry analysis of Tni insect cells induced to transiently express human CTLA4-Fc. Cells were stained with Alexa Fluor-647 conjugated mLcn2-Fc variants and gated for Forward scatter/Side scatter, DAPI^−, singlet size (pulse width), and APC. Uninfected cells stained with mLcn2-Fc are shown in grey as a negative control.

[3] = test system: tumor-infiltrating lymphocytes (TILs) in B16 tumor tissues; test: In vivo detection of mLcn2 variants in B16 tumor tissues (IHC); settings: i.v. 100 μg, melanoma-bearing mice, tumor samples 72 hr post-dose; listed as unmasked (MMP9-pretreated) mLcn2
Method: FIG. 4: In vivo detection of mLcn2 variants (CTLA-4 binding protein variants) in B16 tumor tissues.
(§1) FIG. 9: Biodistribution of mLcn2-Fc constructs in vivo. (A-C) Naïve mice were injected i.v. with 100 μg of indicated mLcn2-Fc construct and tissue samples were collected 48 hr. post-dose. Cryosections were stained for CD4 or CD8 (medium gray) and human IgG (light gray) from the thymus (A), spleen (B), and pituitary gland (C, IgG only). (D) Melanoma-bearing mice were injected as above and tumor samples were collected 72 hr. post-dose. 4′,6-diamidino-2-phenylindole (DAPI) nuclear staining shown in dark gray.
FIG. 17: Melanoma-bearing mice were injected i.v. with 100 μg of indicated mLcn2-Fc construct and tumor samples were collected 72 hr. post-dose. Cryosections were stained for CD4 or CD8 (medium gray) and human IgG (light gray). […] 4′,6-diamidino-2-phenylindole (DAPI) nuclear staining shown in dark gray.
(§2) In these experiments constructs were injected i.v. into C57/B16 mice bearing B16 melanomas. Three days after injection, tumor and tissue samples were collected and doublestained using antibodies recognizing either CD4 or CD8 and mLcn2 (e.g. human IgG-Fc). Membranes of both intratumoral CD4+ and CD8+ T cells were decorated with mLcn2 which was not detected on other cell types.

[4] = test system: pituicytes; test: In vivo binding of mLcn2 variants to cells within the pituitary gland; settings: naïve mice, i.v. 100 μg, 48 hr post-dose, human IgG staining
Method: FIG. 5: Binding of CTLA-4 antagonist mLcn2 variants to cells within the pituitary gland.
as §1
FIG. 18: Naïve mice were injected i.v. with 100 μg of indicated mLcn2-Fc construct and tissue samples were collected 48 hr. post-dose. Cryosections were stained for human IgG (light gray).
as §2

[5] = test system: CD4/CD8 negative cells in the spleen; test: In vivo binding of mLcn2 constructs in the spleen; set-up: species or system mice; settings: not shown; potentially due to FcR binding
Method: as §1
FIG. 16: Naïve mice were injected i.v. with 100 μg of indicated mtLCN2-Fc construct and tissue samples were collected 48 hr. post-dose. Cryosections were stained for CD4 or CD8 (medium gray) and human IgG (light gray) from the spleen.
as §2

[6] = test system: CTLA-4-Fc; test: SPR kinetics of monomeric mLCN2 and dimeric mLCN2-Fc on immobilized CTLA-4-Fc; format: binding; settings: dimeric CTLA-4-Fc immobilized at medium density on CM5 chip
Method: FIG. 10A: SPR analysis. Dimeric CTLA-4-Fc was immobilized at medium density to a CM5 chip. A range of 3-1000 nM monomeric mLCN2 (top) and 3-300 nM dimeric mLCN2-Fc (bottom) analytes were used for kinetics analyses. […] Concentration of analytes is 1000; 300; 30; and 3 nM.

[7] = test system: murine, primate and human CTLA-4; test: CTLA-4 species cross-reactivity of mLcn2; format: binding

Chain of CTLA-4-Fc (P16410 36-161 limits assumed): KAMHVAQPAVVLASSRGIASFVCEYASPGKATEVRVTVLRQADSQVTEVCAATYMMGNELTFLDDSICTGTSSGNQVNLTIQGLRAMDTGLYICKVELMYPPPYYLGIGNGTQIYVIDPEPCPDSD
Chain of human CTLA4-Fc on Tni insect cells (P16410 36-161 limits assumed): as above
Chain of CTLA-4 (P16410 36-161 limits assumed): as above

Molecule	CTLA-4 binding by SEC ([1]; FIG. 3B)	SEC elution volume of construct incubated with CTLA-4 ([1]; Superdex 200, apo CTLA-4 13.0 mL, apo constructs ~12.7 mL) [mL]	binding to CTLA4-Fc expressing Tni cells [2]	staining of CD4 or CD8 TILs in tumor [3]	binding to pituitary gland cells [4]	binding in the spleen [5]	ka [6]	kd [6]	CTLA-4 binding across species [7]
B1	binding of CTLA-4 only to unmasked mLcn2-Fc constructs	11.3	showed binding to cells	membrane staining of tumor-infiltrating lymphocytes (TILs)	bound equally well to pituicytes	bound to CD4/CD8 negative cells in the spleen			
B2			showed binding to cells		bound equally well to pituicytes		1.0 E4 M^−1 s^−1	could not be determined as it was beyond the limitations of the instrument	
B3					reactivity with non-immune cells in the pituitary glands		3.6 E4 M^−1 s^−1	2.0 E-4 s^−1	binds to murine, primate and human CTLA-4
